US20150110786A1 (YEDA RESEARCH AND DEVELOPMENT, published 2015)

T1: Recombinant human QSOX1 (HsQSOX1 33-546) (human, UniProt O00391 33-546, bound FAD cofactor)
T1 construct: also called full-length HsQSOX1; rQSOX1
T1 sequence: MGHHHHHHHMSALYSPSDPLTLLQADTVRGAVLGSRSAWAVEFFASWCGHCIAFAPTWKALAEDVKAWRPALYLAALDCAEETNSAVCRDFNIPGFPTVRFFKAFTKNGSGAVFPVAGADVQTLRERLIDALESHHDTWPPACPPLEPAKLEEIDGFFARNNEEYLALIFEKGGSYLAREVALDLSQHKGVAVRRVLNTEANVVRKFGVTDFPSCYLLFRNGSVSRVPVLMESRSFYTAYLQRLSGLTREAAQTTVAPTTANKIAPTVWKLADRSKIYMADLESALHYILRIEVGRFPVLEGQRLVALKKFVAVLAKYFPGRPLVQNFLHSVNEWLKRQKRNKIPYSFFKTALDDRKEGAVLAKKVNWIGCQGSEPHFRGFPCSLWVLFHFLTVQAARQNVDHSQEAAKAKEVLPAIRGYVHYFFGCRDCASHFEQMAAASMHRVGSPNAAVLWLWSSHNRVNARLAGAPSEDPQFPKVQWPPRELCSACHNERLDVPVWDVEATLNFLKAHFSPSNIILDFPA

T2: HsQSOX1Erv (carboxy-terminal fragment of human QSOX1, psi-Erv and Erv domains) (human, UniProt O00391 286-546, limits assumed, bound FAD cofactor)
T2 construct: domain: carboxy-terminal fragment, HsQSOX1Erv (two Erv-fold domains); also called HsQSOX1 carboxy-terminal fragment
T2 sequence (looked up): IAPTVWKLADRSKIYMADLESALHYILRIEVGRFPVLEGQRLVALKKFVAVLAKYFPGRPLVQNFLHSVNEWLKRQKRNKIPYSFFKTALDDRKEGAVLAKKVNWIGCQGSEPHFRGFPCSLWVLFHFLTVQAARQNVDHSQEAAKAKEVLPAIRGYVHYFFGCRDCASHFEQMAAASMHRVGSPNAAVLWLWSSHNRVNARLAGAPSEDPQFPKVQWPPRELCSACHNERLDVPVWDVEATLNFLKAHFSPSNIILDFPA

B1: scFv492.1 (scFv)
scFv: QVQLKQSGPGLVAPSQSLSITCTVSGFSLTGYGVNWVRQSPGKGLEWLGMIWGDGRTDYKSALKSRLSITKDNSKSQVFLKMNSLQTDDTARYFCASDYYGSGSFAYWGQGTLVTVSAGGGGSGGGGSGGGGSDVVMTQTHKFMSTSVGDRVSITCKASQDVSTAVAWYQQKSGQSPKLLIHSASYRYTGVPDRFTGSGSGTDFTFTISSVQAEDLAVYYCQQHYSIPLTFGAGTKLELK
notes: also called single chain antibody fragment of MAb492.1; not shown: thrombin-cleavable His6-tag at the amino terminus
B2: MAb492.1 (antibody, V domains shown)
VH: QVQLKQSGPGLVAPSQSLSITCTVSGFSLTGYGVNWVRQSPGKGLEWLGMIWGDGRTDYKSALKSRLSITKDNSKSQVFLKMNSLQTDDTARYFCASDYYGSGSFAYWGQGTLVTVSA
VL: DVVMTQTHKFMSTSVGDRVSITCKASQDVSTAVAWYQQKSGQSPKLLIHSASYRYTGVPDRFTGSGSGTDFTFTISSVQAEDLAVYYCQQHYSIPLTFGAGTKLELK
notes: also called anti-QSOX1 monoclonal antibody; QSOX1-specific monoclonal antibody
B3: Fab492.1 (Fab fragment of MAb492.1) (Fab, V domains shown)
VH: QVQLKQSGPGLVAPSQSLSITCTVSGFSLTGYGVNWVRQSPGKGLEWLGMIWGDGRTDYKSALKSRLSITKDNSKSQVFLKMNSLQTDDTARYFCASDYYGSGSFAYWGQGTLVTVSA
VL: DVVMTQTHKFMSTSVGDRVSITCKASQDVSTAVAWYQQKSGQSPKLLIHSASYRYTGVPDRFTGSGSGTDFTFTISSVQAEDLAVYYCQQHYSIPLTFGAGTKLELK

What was measured:
[1] = molecular target: T1, Recombinant human QSOX1 (HsQSOX1 33-546); experiment: calculated from the IC50 of the rdRNase oxidation colorimetric assay with the equation for competitive inhibition
Procedure: Reactions of 100 μL volume were conducted in 96 well plates (Nunc). Reduced and denatured RNaseA (Sigma) was used as a model substrate and was prepared as follows. Ten mg RNase was dissolved in 1 ml of 20 mM phosphate buffer, pH 6.5, 6 M GuHCl, and 100 mM DTT, and incubated at 37° C. for 1 hr. The protein was desalted on a PD-10 column (GE Healthcare) equilibrated with DDW, and its thiol content was determined by DTNB absorbance at 412 nm. 50 nM recombinant HsQSOX1 and various concentrations of monoclonal antibody clones were incubated for 30 min at RT. Reactions were initiated with the addition of 200 μM RNase thiols and were quenched after 25 min with 1 mM DTNB. Absorbance was measured at 405 nm in a microplate reader.

[2] = molecular target: T1, Recombinant human QSOX1 (HsQSOX1 33-546); experiment: cell-based or functional assay
[3] = molecular target: T1, Recombinant human QSOX1 (HsQSOX1 33-546); experiment: oxygen consumption assay, 25 nM HsQSOX1, 1-250 nM MAb492.1, 200 µM DTT, fit to a tight-binding inhibitor model
Procedure: A Clarke-type oxygen electrode (Hansatech Instruments) was used to monitor changes in dissolved oxygen concentrations as a measure of HsQSOX1 activity. […] Reactions were started by injection of dithiothreitol (DTT) to a concentration of 200 μM in the electrode reaction chamber. […] The ratios of the initial rates of HsQSOX1 in the presence and absence of inhibitor were plotted as a function of inhibitor concentration.
This assay allows direct determination of initial velocities and not just degree of activity.

[4] = molecular target: T2, HsQSOX1Erv (carboxy-terminal fragment …); experiment: ELISA

Binder | Ki [1] [µM] | IC50, inhibition of rdRNase oxidation (DTNB colorimetric assay), 50 nM HsQSOX1 [2] [µM] | Ki [3] [µM] | binding result [4] | IC50, inhibition of rdRNase oxidation (DTNB colorimetric assay), 250 nM HsQSOX1 [2] [µM]
B1 | 0.13 | 0.25 |  |  | 
B2 |  | 0.06 | 0.001 | no binding | 0.24
B3 |  | 0.1 |  |  | 
